Values of other authors in PMC10977282.

Biological target: DR5 (Homo sapiens) (UniProt O14763)

In the case of OPG (from UniProt O00300), the Kd is listed as less than 400 nM.
